# Results: the nanobody polyreactivity screen of Harvey et al. (2022)
# Experiment: yeast display, Sf9 membrane polyspecificity reagent, FACS + sequencing; frameworks hold sequencing errors
# Outline: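 After 36–48 hours of galactose induction, yeast (Saccharomyces cerevisiae BJ5465) displaying a synthetic nanobody library were stained at 4 °C for 1 hour with 10% biotinylated, detergent-solubilized Sf9 membrane reagent. Streptavidin microbeads enriched the stained cells before FACS sorting into low and high (top ~1%) gates on anti-HA and streptavidin fluorescence. Each clone's polyreactivity label reflects its gate of origin.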
row,Sequence,polyreactivity (PSR sort gate)
1,QVQLVESGGGLVQAGGSLRLSCAASGRIFSRNAMGWYRQAPGKEWELVARITVTVGSTYYADSVKGRFTISRDNAKNTVYLQMNSLKPEDTAVYYCAADAGYRYDCPYNYYYWGQGTQVTVSS,low polyreactivity
2,QVQLVESGGGLVQAGGSLRLSCAASGRIFSRYAKGWYRQAPGKERELVAAINKSGGSTYYADSVKGRFTISRDNAKNTVYLQMNSLKPEDTAVYYCNAVYYWYKGDYWGQGTQVTVSS,high polyreactivity
3,QVQLVESGGGLVQAGGSLRLSCAASGRIFSRYAMGWYLQAPGKERELVAAISWSGGSTYYADSVKGRFTISRDNAKNTVYLQMNSLKPEDTAVYYCAAKRQYTEYNYWGQGTQVTVSS,high polyreactivity
4,QVQLVESGGGLVQAGGSLRLSCAASGRIFSRYAMGWYRQAPGKERELVAAISKSGGRTYYADSVKGRFTISRDNAKNTVYLQKNSLKPEDTAVYYCATVIFRSSGYYYWGQGTQVTVSS,high polyreactivity
5,QVQLVESGGGLVQAGGSLRLSCAASGRIFSRYAMGWYRQAPGKERELVAAITRRGGSTYYADSVKGRFTISRDNAKNTVYLQMNSLKPEDTAVYYCAADGQWPWWLLRYDYWGQGTQVTVSS,high polyreactivity
6,QVQLVESGGGLVQAGGSLRLSCAASGRIFSRYTMGGYRQAPGKERELVAANSYRGGSTYYADSVKGRFTISRDNAKNTVYLQMNSLKPEDTAVYYCAARVQAIYRYDYWGQGTQVTVSS,high polyreactivity
7,QVQLVESGGGLVQAGGSLRLSCAASGRIFSRYTMGWYRQAPGKERELVATIRISGGNTYYADSVKGRFTISRDNAKNTVYLQMNSLKPDDTAVYYCAARYGWVQNTYTMYFWGQGTQVTVSS,high polyreactivity
8,QVQLVESGGGLVQAGGSLRLSCAASGRIFSSYAMGWYRQAPWKERELVAAISGSGGRTYYADSVKGRFTISRDNAKNTVYLQMNSLKPEDTAVYYCNARRRSPYSTGVAYDYWGQGTQVTVSS,high polyreactivity
9,QVQLVESGGGLVQAGGSLRLSCAASGRIFSSYTMGWYRQAPGKERELVAAISWRGGSTYYADSVKGRFTISRDNAKNTVYLQMNSLKPEDTAVYYCAADSRSHPGDYWGQGTQVTVSS,low polyreactivity
10,QVQLVESGGGLVQAGGSLRLSCAASGRIFSTYAMGWYRQAPGKERELVAAINKIGGSTYYADSVKGRFTISRDNAKNTVYLQMNSLIPEDTAVYYCAADAPYYPVRRYYYWGQGTQVTVSS,low polyreactivity
11,QVQLVESGGGLVQAGGSLRLSCAASGRIFSTYTMGWYRQAPGKEMELVAAIRANGGSTYYADSVKGRFTISRDNAKNTVYLQMNSLKPEDTAVYYCAALYRRYPYHYDSWGQGTQVTVSS,high polyreactivity
12,QVQLVESGGGLVQAGGSLRLSCAASGRIFSVNAMGWYRQATGKERELVASITMSGGSTYYADSVKGRFTISRDNAKNTVYIQMNSLKPEDTAVYYCAKGWSRYNDRERDDEYWGQGTQVTVSS,low polyreactivity
13,QVQLVESGGGLVQAGGSLRLSCAASGRIFSVNVMVWYRQAPGKERELVAAITWSVGSTYYADSVKARFTISRDNAKYTVSLQMYSLKPEDTAVYYSAARVPPVYGRVGGYHYWGQGTQVTVSS,low polyreactivity
14,QVQLVESGGGLVQAGGSLRLSCAASGRIFSVYAMGWSRQAPGKERELVATIRWGGGSTYYADSVKGRFTISRDNAKNTVYLQMNSLKPEDTAVYYCAAGWRGGRYRYFAYDYWGQGTQVTVSS,high polyreactivity
15,QVQLVESGGGLVQAGGSLRLSCAASGRIFSVYAMGWYRQAPGKERELVAGITSSGGSTYYADSVKGRFTISRDNAKNTVYLQMNSLKPEDTAVYYCNAYSQYWLGNNYWGQGTQVTVSS,high polyreactivity
16,QVQLVESGGGLVQAGGSLRLSCAASGRIFSVYSMGWYRQAPGKERELVAAIRSGDRTNYADSVKGRFTISRDNAKNTVYLQMISLKPEVTAVYYCAAVRYPNWYDYWGHGTQVTVSS,high polyreactivity
17,QVQLVESGGGLVQAGGSLRLSCAASGRIFSWYAMGWYRQAPGKERELVAAISWNGGSTYYADSVKGRFTISRDNAKNTVYLQMNSLKPEDTAVYYCAATYRHYGYDSWGQGTQVTVSS,high polyreactivity
18,QVQLVESGGGLVQAGGSLRLSCAASGRIFSWYAMGWYRQAPGKEREMVARITTRGGNTYYADSVKGRFTISRDNAKNTVFLQMNSLKPEDTAVYYCAARHPYPIYDYWGQGTQVTVSS,low polyreactivity
19,QVQLVESGGGLVQAGGSLRLSCAASGRIFSWYDMGWDRQAPGKERELVAAISSGGSTIYADSVKGRFTISRDNAKQTVYLQMNSLKPEDTAVSYCNKSPSWWRYKTGLDYWGQGTQVTVSS,high polyreactivity
20,QVQLVESGGGLVQAGGSLRLSCAASGRIFSYAMGWYRQAPGKERELVAGISRSGGSTYYADSVKGRFTISRDNAKNTVYLQMNSLKPEDTAVYYCAAVKIRTVYKYNYWGQGTQVTVSS,high polyreactivity
21,QVQLVESGGGLVQAGGSLRLSCAASGRIFSYNAMGWYRQAPGKERELVAAIRVRGGSTYYADSVKGRFTLSRDNAKNTVYLQMNSLKPEDTAVYYCNASDYKISATNAVVRYYYWGQGTQVTVSS,high polyreactivity
22,QVQLVESGGGLVQAGGSLRLSCAASGRIFSYNAMGWYRQAPGKERELVAAISSGGSTYYADSVKGRFTISRDNAKNTVYLQMNSLKPEDTAVYYCAADRRYYSDMYYWGQGTQVTVSS,low polyreactivity

row,Sequence,polyreactivity (PSR sort gate)
1,QVQLVESGGGLVQAGGSLRLSCAASGRIFSYNAMGWYRQAPGKERELVAAISYRGGSTYYADSVKGRFTISRDNAKNTVYLQMNSLKPEDTAVYYCNAEAYYPYGYDYWGQGTQVSVSS,low polyreactivity
2,QVQLVESGGGLVQAGGSLRLSCAASGRIFSYNAMGWYRQAPGKERELVAAITGGGSTNYADSVQGRFTISRDNAKNTVYLHMTSLKPEDTAVYYCAADARGYGYYYWGQGTQVTVSS,high polyreactivity
3,QVQLVESGGGLVQAGGSLRLSCAASGRIFSYNAMGWYRQAPGQERELVAAITTGGSTYYADSVKGRFTISRDNAKNTVYLQMNSLKPEDTAVYYCNKLGYYYDRRYDYWRQGTQVTVSS,high polyreactivity
4,QVQLVESGGGLVQAGGSLRLSCAASGRIFSYNARGWYRQAPGKERELVAAISSDGSTYYADSVKGRFTISRDNAKNTVYLQMNSRKPEDTAVYYCAARQVLWFDYTTAQVGSYKVNSWGQGTQVTVSS,low polyreactivity
5,QVQLVESGGGLVQAGGSLRLSCAASGRIFSYNVMGWYRQAPGKERELVAAITSNDGSTYYADSVKGRFTISRDNAKNTVYLQMNSLKPEVTAVYYCNADYGPVSLKEPFRDDYWGQGNQVTVSS,low polyreactivity
6,QVQLVESGGGLVQAGGSLRLSCAASGRIFSYYALGWYRQAPGKERELVAAISSRGGSTYYADSVKGRFTISRDNAKNTVYLQMNSLKPEDTAVYYCNAYVYQVIGHDYWGQGTQVTVSS,high polyreactivity
7,QVQLVESGGGLVQAGGSLRLSCAASGRIFSYYAMGWYRQAPGKERELVAAISRTGGTTYYADSVKGRFTISRDNAKNTVYLQMNSLNPEDTAVYYCYAVKAPYMRYDYWGQGTQVTVSS,high polyreactivity
8,QVQLVESGGGLVQAGGSLRLSCAASGRIFSYYAMGWYRQAPGKERELVAAISTSGGNTYYADSVKGRFTISRDNAKNTVYLQMNSLLTEDTAVYYCAAAYFSSGYKYYYWGQGTQVSVSS,high polyreactivity
9,QVQLVESGGGLVQAGGSLRLSCAASGRIFSYYAMGWYRQAPGKERELVAAISYSTTSTYYADSVKGRFTISRDNAKNTVYLQMNSLKPEDTAVYYCAAEFQPGSYTPTYDYWGQGTQVTVSS,low polyreactivity
10,QVQLVESGGGLVQAGGSLRLSCAASGRIFSYYAMGWYRQAPGKERELVATISGSGGSTYYADSVKGRFTISRDNAKNTVFLQMNSLKPEDTAVYYCAATGFIFRGRVRAIPRRYNYWGQGTQVTVSS,high polyreactivity
11,QVQLVESGGGLVQAGGSLRLSCAASGRIFSYYTMGGYRQAPGTERELVAAISSGGSTNYADSVKGRFTISRDNAKNTVYLQMNSLKPEDTAVYYCAVRSGRRNYDRPAFGYWGQGTQVTVSS,high polyreactivity
12,QVQLVESGGGLVQAGGSLRLSCAASGRIFSYYTMGWYRQAPGKEREFVAAISWNDGSTYYADSVKGRFTISRDNSKNTVYLQMNSLKPEDTAVYYCAAEYHYFWWRMDYWGQGTQVTVSS,high polyreactivity
13,QVQLVESGGGLVQAGGSLRLSCAASGRIFSYYTMGWYRQAPGKERELVAAITSGDSTNYADSVKGRFTISRDNAKNTVYLQMNSLKPEDTAVYYCNARYSWWRSRVGSSHGPDGYWGQGTQVTVSS,high polyreactivity
14,QVQLVESGGGLVQAGGSLRLSCAASGRIFTANAMGWYRQAPGKERELVAAITSGTRTNYADSVKGRFTISRDNAKNTVYLQMNSLKPEDTAVFYCAKETATSKYDYWGQGTQVTVSS,low polyreactivity
15,QVQLVESGGGLVQAGGSLRLSCAASGRIFTFYAMGWYRQAPGKERELVAAITSGGSTYYADSVKGRFTISRDNAKKTVYLQMNSLKPEDTAVYYCNTYPGSRHGWYDYWGQVTQVTVSS,high polyreactivity
16,QVQLVESGGGLVQAGGSLRLSCAASGRIFTGNAMGWYRQAPGKERELVAAISSRGGRTYYADSVKGRFTISRDNAKNTVYLQMNSLKPEDTAVYYCNAVAVAASRAYSWYDYWGQGTQVTVSS,high polyreactivity
17,QVQLVESGGGLVQAGGSLRLSCAASGRIFTGYALGWYRQAPGKERELVAAISRGGSTNYADSVKGRFTISRDNAKNTVYLQMNSLKPEDTAVYYCAAGVHWDRGDYWGQGTQVTVSS,low polyreactivity
18,QVQLVESGGGLVQAGGSLRLSCAASGRIFTGYAMGWYRQAPGKERELVAAISRGGSTNYADSVKGRFTISRDNAKNSVYLQMNSLKPEDTAVYYCAAGVHWDRGDYWGQGTQVTVSS,low polyreactivity
19,QVQLVESGGGLVQAGGSLRLSCAASGRIFTGYAMGWYRQAPGKERELVATIRSRGGGTYYADSVKGRFTISRDNAKNTVYLQMNSLKPEDTAVYYCAADDYYYYFGTRYGYWGQGTQVTVSS,low polyreactivity
20,QVQLVESGGGLVQAGGSLRLSCAASGRIFTGYTMGWYRQAPGKERELVAGITRGGSTYYADSVKGRFTISRDNAKNTVYLQMNSLKPEDTAVYYCAADYPRFWYHSWYVPAYYYWGQGTQVTVSS,high polyreactivity
21,QVQLVESGGGLVQAGGSLRLSCAASGRIFTHNAIGWYRQAPGKERELVAGISYGGGSTYYADSVKGRFTISRDNAKITVYLQMNSLKPEDTAVYYCIAYIYDTYYWGQGTQVTVSS,low polyreactivity
